The values that follow come from US12247072 (ASHER BIOTHERAPEUTICS, dated 2025).

Residue numbers refer to the chain shown, from its start. Names may count otherwise. Bounds are passed on as bounds.

The target of test [1] is T1, Recombinant human IL-21R, extracellular domain fused to 8x Histidine tag (generated in house) (human, UniProt Q9HBE5 20-232). The test is described as follows: SPR, 37 C. In general terms: Surface plasmon resonance follows binding to a sensor surface in real time, without labels.
T1 sequence (Q9HBE5 other isoform, or with tags, fused parts or gaps limits assumed): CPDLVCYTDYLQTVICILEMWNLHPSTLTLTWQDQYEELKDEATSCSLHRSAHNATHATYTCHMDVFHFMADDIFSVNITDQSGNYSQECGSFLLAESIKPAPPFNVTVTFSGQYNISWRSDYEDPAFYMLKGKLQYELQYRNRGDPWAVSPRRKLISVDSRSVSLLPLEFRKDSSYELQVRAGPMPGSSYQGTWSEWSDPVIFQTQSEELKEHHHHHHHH
Test [2] has as its target T2, Human IL-21R (Biolegend, Catalog No. 773104) (human, UniProt Q9HBE5 20-232, limits assumed).
T2 construct: Bought; also called human IL-21 receptor
The test is described as follows: SPR, 37 C.

Test [3] concerns the target T2, Human IL-21R (Biolegend, Catalog No. …). The test is described as follows: SPR, 37 C. This is another data set of the same source.
In test [4] the target is T1, Recombinant human IL-21R, extracellular …. As to the kind of experiment: SPR, 25 C.
In the next test the target is T3, mouse CD8 (mouse, UniProt P01731 28-247; P10300 22-213).
T3 construct: copies: 1 + 1
T3 sequence (P01731 28-247 limits assumed, one chain of several): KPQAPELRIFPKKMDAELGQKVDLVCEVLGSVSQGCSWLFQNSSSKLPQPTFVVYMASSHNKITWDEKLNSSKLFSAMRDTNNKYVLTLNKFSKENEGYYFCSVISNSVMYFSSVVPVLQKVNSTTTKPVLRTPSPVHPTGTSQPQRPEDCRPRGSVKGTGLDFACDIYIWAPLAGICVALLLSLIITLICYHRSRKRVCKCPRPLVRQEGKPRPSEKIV
The test is described as follows: not described.
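Wherever koff is given: fc fusion proteins captured on an anti-human IgG Fc Biacore surface, 10 min dissociation, double-referenced data fitted to a 1:1 Langmuir model with mass transport, triplicate runs.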
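Wherever kon is given: fc fusion proteins captured on an anti-human IgG Fc Biacore surface, 10 min dissociation, double-referenced data fitted to a 1:1 Langmuir model with mass transport, triplicate runs.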

T2 sequence (Q9HBE5 20-232 limits assumed): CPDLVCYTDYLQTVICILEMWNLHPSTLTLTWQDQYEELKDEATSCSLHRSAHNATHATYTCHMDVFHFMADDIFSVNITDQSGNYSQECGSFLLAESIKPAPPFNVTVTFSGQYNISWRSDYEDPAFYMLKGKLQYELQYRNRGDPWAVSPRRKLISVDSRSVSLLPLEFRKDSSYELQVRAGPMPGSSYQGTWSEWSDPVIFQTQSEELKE

B1: xhCD8.1-hIL21 v2.7 (other)
VH: QVQLVQSGAEVKKPGSSVKVSCKASGGTFSSYAISWVRQAPGQGLEWMGGIIPGYATANYAQKFQGRVTITADESTSTAYMELSSLRSEDTAVYYCARDAAGIRLFADWGQGTLVTVSS
VL: DIQMTQSPSSLSASVGDRVTITCRASQSIYGALNWYQQKPGKAPKLLIYGASNLQSGVPSRFSGSGSGTDFTLTISSLQPEDFATYYCQSTYTAPWTFGGGTKVEIK
chain: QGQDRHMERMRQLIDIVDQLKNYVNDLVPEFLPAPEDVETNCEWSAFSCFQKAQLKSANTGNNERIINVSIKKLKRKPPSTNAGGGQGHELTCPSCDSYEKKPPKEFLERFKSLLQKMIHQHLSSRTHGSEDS
notes: Human IgG1/kappa, knob-into-hole, L234A/L235A/G237A
As to B1, the Kd – broadly, the equilibrium constant for the complex coming apart – in test [1] worked out at 156 nM.

B2: xhCD8.1-hIL21 v29 (other)
VH: B1 VH
VL: B1 VL
chain: QGQDRHMIRMRQLIDIVDQLKNYVNDLVPEFLPAPEDVETNCEWSAFSCFQKAQLKSANTGNNERIINVSIKKLKRKPPGGGGEGGGGGEGGCPSCDSYEKKPPKEFLERFKSLLQKMIHQHLSSRTHGSEDS
notes: as for B1
On to B2, for which, in test [2], the Kd is 0.094 nM; the koff (usually a measure of how fast the partners let go of each other) came to 0.00119 s⁻¹; the kon (in general, the second-order rate constant of association) turned out to be 1.27e+07 M⁻¹ s⁻¹. Moreover, in test [3], the “fold difference of IL-21R affinity against wild type IL-21” value (“fold difference of IL-21R affinity” below) is at most 2 fold.

B3: xhCD8.1-hIL21 v2.38 (other)
VH: B1 VH
VL: B1 VL
chain: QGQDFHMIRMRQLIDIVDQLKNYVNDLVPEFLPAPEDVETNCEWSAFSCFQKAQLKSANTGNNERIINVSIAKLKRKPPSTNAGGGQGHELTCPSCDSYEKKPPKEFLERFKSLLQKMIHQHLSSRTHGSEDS
notes: as for B1
Turning to B3, the Kd in test [1] came out at 66.9 nM.

B4: xhCD8.1-hIL21 v2.43 (other)
VH: B1 VH
VL: B1 VL
chain: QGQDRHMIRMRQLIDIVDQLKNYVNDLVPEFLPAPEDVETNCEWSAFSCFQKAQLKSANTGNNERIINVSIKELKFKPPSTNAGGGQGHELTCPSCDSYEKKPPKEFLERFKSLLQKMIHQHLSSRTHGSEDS
notes: as for B1
As to B4, the binding result in test [1] was “no binding (tested: highest concentration tested)”.

B5: xhCD8.1-hIL21 v2.36 (other)
VH: B1 VH
VL: B1 VL
chain: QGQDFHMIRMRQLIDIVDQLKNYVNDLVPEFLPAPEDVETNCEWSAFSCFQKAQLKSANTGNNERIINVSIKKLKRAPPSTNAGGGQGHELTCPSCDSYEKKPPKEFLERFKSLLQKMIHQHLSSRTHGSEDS
notes: as for B1
On to B5, for which the Kd in test [1] was determined as 125 nM.

B6: xhCD8.1-hIL21 v2.34 (other)
VH: B1 VH
VL: B1 VL
chain: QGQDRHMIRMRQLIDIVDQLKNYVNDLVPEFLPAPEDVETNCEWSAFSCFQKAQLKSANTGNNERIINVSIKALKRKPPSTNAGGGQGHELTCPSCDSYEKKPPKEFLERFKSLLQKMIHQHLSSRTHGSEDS
notes: as for B1
For the molecule B6, the Kd in test [1] stood at 2 nM.

B7: xhCD8.1-hIL21 v27 (other)
VH: B1 VH
VL: B1 VL
chain: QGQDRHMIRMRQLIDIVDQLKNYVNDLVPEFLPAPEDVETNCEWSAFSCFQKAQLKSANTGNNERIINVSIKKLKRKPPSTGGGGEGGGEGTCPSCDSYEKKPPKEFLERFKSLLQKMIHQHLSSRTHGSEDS
notes: as for B1
Turning to B7, in test [2], the affinity, expressed as Kd, was 0.106 nM; the koff was 0.00139 s⁻¹; the kon is 1.31e+07 M⁻¹ s⁻¹. In addition, the “fold difference of IL-21R affinity” value in test [3] is at most 2 fold.

B8: xhCD8.1-hIL21 v2.31 (other)
VH: B1 VH
VL: B1 VL
chain: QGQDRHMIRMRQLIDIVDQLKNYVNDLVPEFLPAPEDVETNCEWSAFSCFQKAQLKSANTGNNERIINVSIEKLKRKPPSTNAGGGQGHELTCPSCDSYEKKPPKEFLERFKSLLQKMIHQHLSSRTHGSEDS
notes: as for B1
Turning to B8, the Kd in test [1] was found to be 3.4 nM.

B9: xhCD8.1-hIL21 v2.37 (other)
VH: B1 VH
VL: B1 VL
chain: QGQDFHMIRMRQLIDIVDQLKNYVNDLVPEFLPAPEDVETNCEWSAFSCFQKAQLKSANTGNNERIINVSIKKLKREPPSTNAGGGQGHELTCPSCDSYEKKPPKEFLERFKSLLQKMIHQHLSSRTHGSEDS
notes: as for B1
Turning to B9, in test [1], the Kd worked out at 601 nM.

B10: xhCD8.1-hIL21 v2.40 (other)
VH: B1 VH
VL: B1 VL
chain: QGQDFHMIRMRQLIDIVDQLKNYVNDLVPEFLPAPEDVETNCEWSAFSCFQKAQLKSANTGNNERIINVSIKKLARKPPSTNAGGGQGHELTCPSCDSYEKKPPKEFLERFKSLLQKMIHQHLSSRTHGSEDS
notes: as for B1
B10: in test [1], the Kd amounted to 54.7 nM.

B11: xhCD8.1-hIL21 v2.20 (other)
VH: B1 VH
VL: B1 VL
chain: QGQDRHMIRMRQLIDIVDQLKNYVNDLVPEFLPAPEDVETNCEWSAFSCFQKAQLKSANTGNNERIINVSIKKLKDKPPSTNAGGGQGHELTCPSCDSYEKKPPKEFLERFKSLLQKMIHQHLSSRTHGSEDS
notes: as for B1
For the molecule B11, the binding result in test [1] is given as “no binding (tested: highest concentration tested)”.

B12: xhCD8.1-hIL21 v2.28 (other)
VH: B1 VH
VL: B1 VL
chain: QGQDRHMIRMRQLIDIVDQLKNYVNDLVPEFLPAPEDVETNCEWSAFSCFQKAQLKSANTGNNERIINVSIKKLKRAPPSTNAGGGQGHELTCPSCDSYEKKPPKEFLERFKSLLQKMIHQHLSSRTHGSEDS
notes: as for B1
B12: the Kd in test [1] came to 0.693 nM.

B13: xhCD8.1-hIL21 v2.30 (other)
VH: B1 VH
VL: B1 VL
chain: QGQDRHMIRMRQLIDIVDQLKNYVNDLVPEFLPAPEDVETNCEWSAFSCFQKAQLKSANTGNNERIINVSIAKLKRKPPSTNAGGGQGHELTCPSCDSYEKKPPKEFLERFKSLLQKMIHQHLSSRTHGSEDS
notes: as for B1
Consider B13, for which, in test [1], the Kd was found to be 0.419 nM.

B14: xhCD8.1-hIL21 v2.29 (other)
VH: B1 VH
VL: B1 VL
chain: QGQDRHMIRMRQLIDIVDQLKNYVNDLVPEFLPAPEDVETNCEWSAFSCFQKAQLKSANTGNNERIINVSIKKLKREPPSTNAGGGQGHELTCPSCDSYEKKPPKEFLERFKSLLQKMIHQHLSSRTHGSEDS
notes: as for B1
Turning to B14, in test [1], the Kd is 2.8 nM.

B15: xhCD8.1-hIL21 v30 (other)
VH: B1 VH
VL: B1 VL
chain: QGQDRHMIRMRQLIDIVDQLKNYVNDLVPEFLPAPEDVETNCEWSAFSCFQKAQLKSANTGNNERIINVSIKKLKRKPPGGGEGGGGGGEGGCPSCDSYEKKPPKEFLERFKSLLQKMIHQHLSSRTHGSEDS
notes: as for B1
Regarding B15, in test [2], the Kd was 0.093 nM, the dissociation rate constant (koff) was found to be 0.00107 s⁻¹ and the on-rate (kon) worked out at 1.16e+07 M⁻¹ s⁻¹. The “fold difference of IL-21R affinity” value in test [3] was at most 2 fold.

B16: xhCD8.1-hIL21 v2.42 (other)
VH: B1 VH
VL: B1 VL
chain: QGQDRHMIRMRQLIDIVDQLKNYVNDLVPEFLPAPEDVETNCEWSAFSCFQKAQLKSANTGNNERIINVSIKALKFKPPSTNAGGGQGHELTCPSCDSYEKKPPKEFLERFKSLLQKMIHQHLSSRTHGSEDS
notes: as for B1
With B16, the binding result in test [1] is listed as “no binding (tested: highest concentration tested)”.

B17: xhCD8.1-hIL21 v2.46 (other)
VH: B1 VH
VL: B1 VL
chain: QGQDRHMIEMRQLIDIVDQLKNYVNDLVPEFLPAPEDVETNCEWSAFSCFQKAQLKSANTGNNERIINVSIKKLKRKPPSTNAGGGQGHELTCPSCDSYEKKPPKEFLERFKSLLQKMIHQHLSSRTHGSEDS
notes: as for B1
As for B17, the binding result in test [1] was “no binding (tested: highest concentration tested)”.

B18: xhCD8.1-hIL21 v2.9 (other)
VH: B1 VH
VL: B1 VL
chain: not shown
notes: as for B1
As for B18, the Kd in test [1] came out at 420 nM.

B19: xhCD8.1-hIL21 v2.41 (other)
VH: B1 VH
VL: B1 VL
chain: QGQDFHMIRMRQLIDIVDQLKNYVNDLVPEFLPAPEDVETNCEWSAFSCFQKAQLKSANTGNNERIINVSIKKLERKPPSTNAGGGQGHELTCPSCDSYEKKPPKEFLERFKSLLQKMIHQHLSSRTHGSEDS
notes: as for B1
As for B19, the Kd in test [1] was found to be 104 nM.

B20: xhCD8.1-hIL21 v31 (other)
VH: B1 VH
VL: B1 VL
chain: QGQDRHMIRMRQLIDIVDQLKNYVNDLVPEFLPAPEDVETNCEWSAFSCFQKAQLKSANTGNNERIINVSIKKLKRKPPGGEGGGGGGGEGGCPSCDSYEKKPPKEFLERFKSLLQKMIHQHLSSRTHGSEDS
notes: as for B1
In test [2], B20 registered a Kd of 0.094 nM, a koff of 0.00113 s⁻¹ and a kon of 1.2e+07 M⁻¹ s⁻¹. For the same molecule, in test [3], the “fold difference of IL-21R affinity” value is at most 2 fold.

B21: xhCD8.1-hIL21 v2.58 (other)
VH: B1 VH
VL: B1 VL
chain: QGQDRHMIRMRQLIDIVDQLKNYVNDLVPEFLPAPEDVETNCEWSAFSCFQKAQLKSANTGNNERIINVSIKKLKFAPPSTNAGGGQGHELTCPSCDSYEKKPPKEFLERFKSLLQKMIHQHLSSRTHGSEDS
notes: as for B1
B21: the dissociation constant Kd in test [1] worked out at 420 nM.

B22: xhCD8.1-hIL21 v2.33 (other)
VH: B1 VH
VL: B1 VL
chain: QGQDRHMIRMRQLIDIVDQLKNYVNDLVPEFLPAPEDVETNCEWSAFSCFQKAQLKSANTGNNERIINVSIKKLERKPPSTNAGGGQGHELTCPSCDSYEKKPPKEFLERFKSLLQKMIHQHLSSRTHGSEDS
notes: as for B1
For the molecule B22, the Kd in test [1] was 1.3 nM.

B23: xhCD8.1-hIL21 v2.32 (other)
VH: B1 VH
VL: B1 VL
chain: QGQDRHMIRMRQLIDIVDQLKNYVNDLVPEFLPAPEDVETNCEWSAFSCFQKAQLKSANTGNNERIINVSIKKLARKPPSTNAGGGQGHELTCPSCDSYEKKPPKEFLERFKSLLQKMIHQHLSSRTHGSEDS
notes: as for B1
Regarding B23, the Kd in test [1] was found to be 0.236 nM.

B24: xhCD8.1-hIL21 v2.45 (other)
VH: B1 VH
VL: B1 VL
chain: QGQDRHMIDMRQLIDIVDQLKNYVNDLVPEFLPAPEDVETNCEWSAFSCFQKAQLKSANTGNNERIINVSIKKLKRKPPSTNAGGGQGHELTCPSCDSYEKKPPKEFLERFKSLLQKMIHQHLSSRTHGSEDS
notes: as for B1
B24: the binding result in test [1] is given as “no binding (tested: highest concentration tested)”.

B25: xhCD8.1-hIL21 v2.39 (other)
VH: B1 VH
VL: B1 VL
chain: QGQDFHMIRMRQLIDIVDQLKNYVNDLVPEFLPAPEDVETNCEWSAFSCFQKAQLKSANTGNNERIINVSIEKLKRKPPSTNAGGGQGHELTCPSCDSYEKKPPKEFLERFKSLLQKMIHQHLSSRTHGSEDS
notes: as for B1
As to B25, the Kd in test [1] was 614 nM.

B26: xhCD8.1-hIL21 v28 (other)
VH: B1 VH
VL: B1 VL
chain: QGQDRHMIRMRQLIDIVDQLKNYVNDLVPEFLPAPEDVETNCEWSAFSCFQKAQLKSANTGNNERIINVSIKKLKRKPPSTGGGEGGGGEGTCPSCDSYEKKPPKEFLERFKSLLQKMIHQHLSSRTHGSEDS
notes: as for B1
On to B26, for which, in test [2], the Kd turned out to be 0.106 nM, the koff came out at 0.00139 s⁻¹ and the kon was 1.31e+07 M⁻¹ s⁻¹. Also, in test [3], the “fold difference of IL-21R affinity” value is at most 2 fold.

B27: hIL21 v31.23, non-fusion, 8His-tagged (ligand)
chain: QGQDRHMIRMRQLIDIVDQLKNYVNDLVPEFLPAPEDVETNCEWSAFSCFQKAQLKSANTGNNERIINVSIKKLKQKPPGGEGGGGGGGEGGCPSCDSYEKKPPKEFLERFKSLLQKMIHQHLSSRTHGSEDSGGASHHHHHHHH
As to B27, the Kd in test [4] came to 6.06 µM.

B28: hIL21 v31.51, non-fusion, 8His-tagged (ligand)
chain: B27 chain with R9G, Q76R
Take B28: the dissociation constant (Kd) in test [4] turned out to be 7.73 µM.

B29: xhCD8-hIL21 v2 (other)
VH: QVHLQQSGPELVKPGASVKMSCKTSGYTFTKYTMHWVKQGHEESLEWIGHFNPNNDETKYNQKFTGKATLTVDKSSTTAYMELRSLTSDDSALYYCARDGLGLRLFADWGQGTLITVSA
VL: DIQMTQSPASLSASVGETVTITCGASENIYGALNWYQRKQGKSPQLLIFGATNLADGVSSRFSGSGSDRQYSLKISSLHPDDVATYYCQNILDTPWTFGGGTKLEIK
chain: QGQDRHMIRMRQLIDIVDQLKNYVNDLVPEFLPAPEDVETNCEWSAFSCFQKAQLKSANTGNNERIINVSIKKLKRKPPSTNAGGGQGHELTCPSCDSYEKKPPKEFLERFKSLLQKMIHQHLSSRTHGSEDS
notes: Human IgG1/kappa, knob-into-hole, L234A/L235A/G237A; also called xhCD8-Fc-hIL21 v2; exemplary IL-21 polypeptide 2
B29: in test [2], binding was put at a Kd of 0.122 nM, the koff was determined as 0.0011 s⁻¹ and the kon was found to be 8.9e+06 M⁻¹ s⁻¹. Besides, the “fold difference of IL-21R affinity” value in test [3] is at most 2 fold.

B30: xhCD8-hIL21 v6 (other)
VH: B29 VH
VL: B29 VL
chain: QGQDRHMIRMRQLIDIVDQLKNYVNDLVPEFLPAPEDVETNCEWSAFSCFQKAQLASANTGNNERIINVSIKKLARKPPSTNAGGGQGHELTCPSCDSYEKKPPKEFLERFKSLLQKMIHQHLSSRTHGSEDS
notes: Human IgG1/kappa, knob-into-hole, L234A/L235A/G237A; also called exemplary IL-21 polypeptide 6
As for B30, in test [2], binding was put at a Kd of 0.478 nM, the koff turned out to be 0.0025 s⁻¹ and the kon was 5.2e+06 M⁻¹ s⁻¹. Besides, the “fold difference of IL-21R affinity” value in test [3] was about 3 fold.

B31: xhCD8-hIL21 v1 (other)
VH: B29 VH
VL: B29 VL
chain: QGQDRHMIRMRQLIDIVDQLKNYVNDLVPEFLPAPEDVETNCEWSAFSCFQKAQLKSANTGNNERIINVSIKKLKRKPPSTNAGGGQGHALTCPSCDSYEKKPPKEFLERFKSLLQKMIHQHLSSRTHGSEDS
notes: Human IgG1/kappa, knob-into-hole, L234A/L235A/G237A; also called exemplary IL-21 polypeptide 1
As for B31, in test [2], the Kd came to 0.117 nM, the koff turned out to be 0.00097 s⁻¹ and the kon worked out at 8.3e+06 M⁻¹ s⁻¹. The “fold difference of IL-21R affinity” value in test [3] is at most 2 fold.

B32: xhCD8v11 (antibody, V domains shown)
VH: EVQLVESGGGLVQPGGSLRLSCAASGFTFSSYAMSWVRQAPGKGLEWVSDITYAGGSTAYADSVKGRFTISRDNAKNSLYLQMNSLRAEDTAVYYCARSNAYAWDDALDIWGQGTLVTVSS
VL: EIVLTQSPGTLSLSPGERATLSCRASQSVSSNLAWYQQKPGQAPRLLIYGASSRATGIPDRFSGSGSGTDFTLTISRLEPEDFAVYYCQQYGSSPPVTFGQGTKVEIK
notes: Anti-human CD8 antibody; human IgG1/kappa
Regarding B32, the binding result in the test with mouse CD8 was “no binding”.
